Data taken from the domain aggregation screens of Martell et al. (2025).

Experiment: soluble fraction after stress (log2 fold change); higher = more stays soluble; pooled small domains, quantitative proteomics
Settings: stress: 75 degC
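Note: 20 min heating vs room temperature control held 20 min.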

Sequence	soluble fraction (log2)
HMRQVFPNPSSSQIKLASSRIGQAFSILDQQGRVVLSGKVSEEAVIALENLAKGIYVLKIGSWSETILK	-2.89
HMRRATLERLANNTAEKAIRYKRSLALEPMNPQERRIIHAALQEVEGVSTHSVGTEPNRKVIVVPDGV	-0.329
HMRRFEFSDGSSNKFWQITRDGTSLTVTFGKIGTAGQTQLKELATEAAAIAEHDKLVKEKTKKGYAEVG	-0.174
HMRRGFGYVRKLPSGRWQASFVGPDLARHSAPHTFETKGDAEGWLGRRQADVVAGEWRPPVP	-0.00612
HMRRISLEDWQLIESLIRRDWSPEQISLWLKKYKKIRVSHEWIYQYILKDKSKAGDLHTHLRSR	0.00689
HMRRKNQVQSSYQKRENGTYTVRFFLSDDMGSIMDLQLMATREDMARALRERFLKDPEKIYGQIMQMLLR	-1.23
HMRRLGTTEIAGILRREISQGILIAKERLPSERSLADTYGVARGTVRQALNLLAREGLVQIRRSSGAYVTF	-0.458
HMRRMAYLVGQRGLAMGDFISGTGQVRIGDTVWRAEAVEGELVRTGDTVVVEGAKMTTAIVRRVM	-1.81
HMRRRKPLVSYEYGTRVYAPSEGEPRYRVVATDADGQRVFAKFSSEEAARHRAREIEGRLATS	-0.26
HMRRSSQQLTLTEVSTIKEMVTSEEYRHVPTGTLALLAQRLRKVFASSSTWYRLVRIYKWRRPRGRIH	-0.329
HMRRSVYQANVLDAIKHLVDQNELATTKAIAEYIGDDYQGNVSRAIRELLADRKIKKLPKVGVLQPYEA	-0.442
HMRRVEDVRTALEHFAAARNTTPMAMTLDQRREAMRELAASGLLNLRRALSEVAQTLGVARSTVYTYLP	-1.39
HMRSAKEYKAIREEIYRFIGAYITKHVYAPSNKEIAEAVGISGTTVHRHLIDMIDEGILETD	-2.65
HMRSFGTLRRLPSGRYQASYAGPDLRRHAAPTTFETKLDAEGWLRDEHRMIERDEWTAPAARSQLK	-0.0721
HMRSFRIGGLVEQGSIARDGQSLTVRFAVTDLAHKIPVTYTGLLPDLFKEGKGVVAEGKLGPDGVFHASQV	-0.0831
HMRSPIWKSITATLTAEIAGGQYRAGDKLPTEAELSQRFGVNRHTLRRALAEMAGAGLVVARRGAGVFVQG	-2.5
HMRSPLYVQIKQHILGDIRKGVWKPGEKLPTELDLAERFGVSVGTVRRAMGGLEDEGIISRREGSGTFVRT	-0.458
HMRSSAATMFGRIALKNKLVDEATLKKVMSELPAGADLGAVLVKQGLISEQHAEAIQKKITAHMKSAP	-0.114
HMRSSALDEIPGIGKQRKKNLLVHFTSVAKIKEASLDEIAAVPGMNRKAALVVVEFFQNQERE	-2.28
HMRSSNEAVSQRRDKILDYISATGRTSTEIVAKEFGVSVMTARRDLLYLMEKRLISKSSSGLFKVDNN	-3.09
HMRTIGDSVYEKIKYDIVHLTLKPGEKLSEASLAEKYGISKAPIRVALRKLQEEGLIVIRPQSGSIVSP	-1.19
HMRTMRHLSVPRQETQQILSQLKAEFALPQGARVQPDPSDSKRTLIPVKEGAESELLSRYPVVHAEP	0.0613
HMRTNNEITSYKLKSGKKRWKFQTYLGLDDKGQKVSVTRQGFRTYNEAISEYNKLRAQGTQGYQ	-0.948
HMRTPTGVQAYLSSGLIKGIGEKTAAAIVDKFGTDALSVIETDPERLLEIPGITPNKLREILESYNQH	0.204
HMRTVAERYGLTAGQWRVLELLTQGKTNRQIAEMLDVTEGTVKIHVSAIFKAMKVTNRTQALLLAKKH	-1.28

Sequence	soluble fraction (log2)
HMRTYDPQAVELNNKALELINQGRLDSALLVYDQSIKTDKTYYFPHIGKSIIYMRKKDWNKAFEETQQAIK	0.493
HMRVDLATEVHSVLRRMMSRPPTLQEIRADLDGEEPGRVHEALDALRAAFRGGRGPKNPYESLKRSLRRG	-0.636
HMRVDLVQRLARHGLSPRQSAVAGGVLRGLDNGEISRQLYIAEQTVKDHLHEIYHRLGVHTRTELLIKVLG	-2.22
HMRVGISRNSGAAGIAVWLTQKLGRPVAKTEEIVHILKNWVDDQYEAGRVTNIGDGELWSVYKQMEAEE	-0.953
HMRVTEIDYGAFMKMIEEKNIGEVKVEDYEIVFTDKDNKNIYKTGIMDDPDLTQRLYNSGAVFA	0.0318
HMRWGDPLTVKVPSFIGQTKDDIAKQHYPFRIEWHGEGAKIGSQLPEVDSVIKQDGTIHLYLV	-0.0635
HMRYFDDEELNNKFLEFLSMRKKIRKPVRTDRALKALLKKLHELSGGDVGLMKQIIDQSLDKEWLGLFEL	-0.889
HMRYNPETTAGRRGLIIKMLDEYGQVNVNELSRYFNVSEVTVRNDLAYLERKNLLIRARGGAIKTE	-1.91
HMRYWVKSETDFLIENRGKYSYQEFADMLGRSYAVVYDKMHQLKIDYTKEELEIFDEKHKAQMREKQQR	-1.96
HMSAAPVGPWALSEFLDAVEKDSVERVTFDDAGKALVAVDADGGRHRVEILPSEGPEILAALRKHSVQFA	0.181
HMSADEVSQQLTSEQTKSKSYQALLQAYAAYQQKSFDDAALELQNVQQDVLSDSQKTIYNTISQAVNS	0.26
HMSADISIGYNIPKGSVTVSAGGRTLQEGIDYDINYDLGTIKITNQAILNAGLPVQVNFENNAS	0.849
HMSADLVYLRKRLQDAIAQLPENMRTAYTLFQIANRSIREISELTGASESLVKVRIHRAKGKLQKQLEDLK	-1.43
HMSAEDYLERIHELIESKGTAHVADIAQSLGVGKPSVTSMVQKLADEGYLNYEKYRSLTLTDSGRSIA	0.165
HMSAEDYMEMIYRLSQENGFTRVNDLASALNVQPPSVTRMIQKLAELNLIKYEKYGVIMLQPYGIEVGRSL	-2.65
HMSAEGPALADWVVRDAHSIGAKITNSVAQLLIDRVGHNQQLLHNELQKLALVQTDISAELVKTMSHY	-0.643
HMSAETRSWTDAQGNQTQAVLRGFDGGDVLLQNAAGKTLRVPVKNLSEDDQRYVVLNISTLID	-0.0549
HMSAITLDQARAIALDHAGISEGDATFVKEQTGTSSYEIEFYSGSNEYDYEIDKATGAILNVDR	0.22
HMSALAEELIKKNQAMILTIKPRDTIWGIANRFQSPPSEKFINQIIELNQVDPYRLRIGQDLLIPLN	-0.984
HMSALTDQQQRVLELVASGLVYKEVAAALSISEPTVKYHMGNILTRLHVKNRAQAIAAARQQGLL	-1.58
HMSAMKYTSEVFQRLSRGQFISSNSIDAETRAIYSDIEENQQEYEDYFSKIDFLLSSGDGFYYFSRK	-2.38
HMSAMSPTEVGERLRLAREAVRMTQKQAADAISVARTTLVAIEQGQRRVRIDELQQLAKTYGVSVNAILR	-2.27
HMSAPAKKPKIKVDLSKVHAGTIVRHKGYGLGQVKGIDGAIIVVTFDGVDKKFQFPGGFENGFLFLTED	-1.48
HMSAPLKELGNDPESGKPIVVKDGRFGAYVTDGETNATLRKTDAVESLTPERAAELLAEKRAKG	0.493
HMSAPTAFSERELELLAGMRRGASNKAMAEQLFISVNTVKYHRANLMRKLGARDRNEALEVAARLG	0.404
